{
  "source": "paper PMC7156267",
  "about": "“Cryo-EM structures of S-OPA1 reveal its interactions with membrane and changes upon nucleotide binding” (eLife, 2020)",
  "proteins": {"B1": {"name": "S-OPA1 (short S1 isoform of human OPA1, splice form 1), wild type (natural protein, UniProt O60313 196-960, looked up)", "chain": "TDRGSESDKHFRKVSDKEKIDQLQEELLHTQLKYQRILERLEKENKELRKLVLQKDDKGIHHRKLKKSLIDMYSEVLDVLSDYDASYNTQDHLPRVVVVGDQSAGKTSVLEMIAQARIFPRGSGEMMTRSPVKVTLSEGPHHVALFKDSSREFDLTKEEDLAALRHEIELRMRKNVKEGCTVSPETISLNVKGPGLQRMVLVDLPGVINTVTSGMAPDTKETIFSISKAYMQNPNAIILCIQDGSVDAERSIVTDLVSQMDPHGRRTIFVLTKVDLAEKNVASPSRIQQIIEGKLFPMKALGYFAVVTGKGNSSESIEAIREYEEEFFQNSKLLKTSMLKAHQVTTRNLSLAVSDCFWKMVRESVEQQADSFKATRFNLETEWKNNYPRLRELDRNELFEKAKNEILDEVISLSQVTPKHWEEILQQSLWERVSTHVIENIYLPAAQTMNSGTFNTTVDIKLKQWTDKQLPNKAVEVAWETLQEEFSRFMTEPKGKEHDDIFDKLKEAVKEESIKRHKWNDFAEDSLRVIQHNALEDRSISDKQQWDAAIYFMEEALQARLKDTENAIENMVGPDWKKRWLYWKNRTQEQCVHNETKNELEKMLKCNEEHPAYLASDEITTVRKNLESRGVEVDPSLIKDTWHQVYRRHFLKTALNHCNLCRRGFYYYQRHFVDSELECNDVVLFWRIQRMLAITANTLRQQLTNTEVRRLEKNVKEVLEDFAEDGEKKIKLLTGKRVQLAEDLKKVREIQEKLDAFIEALHQEK", "notes": "Optic atrophy 1 (OPA1), human, splice form 1 (isoform 1); Dimer in solution by gel filtration, BS3 cross-linking and SEC-MALS; The first residue is worked out from the S1 site (195th residue) and the name of the deletion Δ196-252; also called WT; full-length S-OPA1; source: E. coli Transetta (DE3), purified (Ni-NTA, PreScission cleavage, Superdex 200 gel filtration); not shown: Trx, N-terminal, …"}},
  "molecular_target": "the molecule itself",
  "assay": "SEC; Superdex 200 10/300 GL, column pre-calibrated with molecular weight markers; 20 mM Tris-HCl pH 8.0, 150 mM NaCl, 1 mM DTT; self-association in solution",
  "data": [
    {"protein": "B1", "values": [
      {"measurement": "stoichiometry N", "value": 2}
    ]}
  ]
}
